Article PMC5615437, “A novel bifunctional acetyl xylan esterase/arabinofuranosidase from Penicillium chrysogenum P33 enhances enzymatic hydrolysis of lignocellulose” (Microbial Cell Factories, 2017)

Substrate: CC(=O)Oc1ccc([N+](=O)[O-])cc1
Assay: 4-nitrophenol release, Lineweaver-Burk plot
Type: biochemical, Penicillium chrysogenum
Details: pH 7, 40 °C, pNPA 0.2-2 mM

B1: rPcAxe (Penicillium chrysogenum) (protein)
chain: AASSGCGKQPTLTNGVHTINGRQYILKVPDNYDSNKPHHLVFGLHWRGGNMNSVANGDSIQPWYGLESRAQGSAILVSPDGKNAGWANTNGEDVALIDAIIQQVEGDLCVDSSSRFATGFSWGGGMSYALACSRAKEFKAVSVLSGGLISGCEGGYDPIAYLGIHGIDDQVLPIDEGVTLANKFVGNNKCQPTNIGKPASGSGGFVRSDFQGCSKPVSFIAYDGGHVGAPLGVGSSLAPDATWEFFMAA
For B1, which Km is on record?
Its Km is 465 µM.
